Laboratory results taken from the supplement of paper PMC10567573.

B1: SCNN1D (parent)
chain: FLGHHSFSVRPGTEATISIREDEV
B2: HDAC6 (parent)
chain: QEGLLDRCVSFQARFAEKEELMLV
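Note: lentivirally expressed fusions sorted by FACS into six bins by GFP to DsRed ratio, PSI derived from sequencing read proportions per bin multiplied by bin number.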

Variants of: B1
Test: protein stability index of a GFP-peptide fusion (GPS, HEK-293T) (PSI 1-6); higher = more stable
Settings: c terminus: a fixed tail appended
In the case of FLKHHSFSVRPGTEATISIREDEV [G3K], the protein stability index is reported as 3.02. For FLGHHSFSVRPGTEATISIREDMV [E23M], the protein stability index was 1.91. FLGHHSFSVRPGTEATISIREDCV [E23C] showed a protein stability index of 1.88. With FLGHHSFSVRPGTEATISIREDLV [E23L] the protein stability index was 1.66. FLGHHSFSVRPGTEATISIREDNV [E23N] gave a protein stability index of 2.1. FLGHHSFSVRPGTEATISIREDPV [E23P] gave a protein stability index of 1.99. With FLGHHSFSVRPGTEATISIREDYV [E23Y] the protein stability index was 2.54. For FLGHHMFSVRPGTEATISIREDEV [S6M], the protein stability index was 2.96. In the case of FLGHHEFSVRPGTEATISIREDEV [S6E], the protein stability index is reported as 2.73. FLGHHWFSVRPGTEATISIREDEV [S6W] showed a protein stability index of 1.85. For FLGHHFFSVRPGTEATISIREDEV [S6F], the protein stability index was 2.92. With FLGHHKFSVRPGTEATISIREDEV [S6K] the protein stability index was 1.7. FLGHHVFSVRPGTEATISIREDEV [S6V] showed a protein stability index of 1.88. In the case of FLGHHCFSVRPGTEATISIREDEV [S6C], the protein stability index is reported as 2.25. Variant FLGHHSFSVRPGTEATISLREDEV [I19L] has a protein stability index of 2.16. For FLGHHSFSVRPGTEATISMREDEV [I19M], the protein stability index was 1.55. Variant FLGHHSFSVRPGTEATISAREDEV [I19A] has a protein stability index of 2.68. For FLGHHSFSVRPGTEATISQREDEV [I19Q], the protein stability index was 1.99. With FLGHHSFSVRPGTEATISDREDEV [I19D] the protein stability index was 1.92. With FLGHHSFSVRPGTEATISFREDEV [I19F] the protein stability index was 2.21. Work on FLGHHSFSVRPGTEATISHREDEV [I19H] yielded a protein stability index of 1.9. With FLGHHSFSVRPGTEATISVREDEV [I19V] the protein stability index was 2.74. For FLGHHSFSVRPGNEATISIREDEV [T13N], the protein stability index was 1.49. With FLGHHSFSVRPGFEATISIREDEV [T13F] the protein stability index was 1.91. With FLGHHSFSVRPGKEATISIREDEV [T13K] the protein stability index was 2.37. Variant FLGHHSFSVRPGVEATISIREDEV [T13V] has a protein stability index of 1.49. In the case of FLGHHSFSVRPGHEATISIREDEV [T13H], the protein stability index is reported as 2.03. FLGHHSFSVRPGGEATISIREDEV [T13G] showed a protein stability index of 1.25. FLGHHSFSVRPGAEATISIREDEV [T13A] showed a protein stability index of 1.77. With FLGHHSFSVRPGPEATISIREDEV [T13P] the protein stability index was 1.88. With FLGHHSFSVRPGLEATISIREDEV [T13L] the protein stability index was 2.71. FLGHHSFSVRPGTEATIAIREDEV [S18A] gave a protein stability index of 1.6. In the case of FLGHHSFSVRPGTEATIGIREDEV [S18G], the protein stability index is reported as 1.47. With FLGHHSFSVRPGTEATIIIREDEV [S18I] the protein stability index was 1.96. FLGHHSFSVRPGTEATIFIREDEV [S18F] gave a protein stability index of 1.8. With FLGHHSFSVRPGTEATIEIREDEV [S18E] the protein stability index was 2.49. With FLGHHSFSVRPGTEATIMIREDEV [S18M] the protein stability index was 1.55. For FLGHHSFSVRPGTEATILIREDEV [S18L], the protein stability index was 2.2. For FLGHHSFSVRPGTEAMISIREDEV [T16M], the protein stability index was 2.62. FLGHHSFSVRPGTEALISIREDEV [T16L] showed a protein stability index of 1.49. Variant FLGHHSFSVRPGTEAQISIREDEV [T16Q] has a protein stability index of 2.8. FLGHHSFSVRPGTEACISIREDEV [T16C] gave a protein stability index of 1.29. With FLGHHSFSVRPGTEAWISIREDEV [T16W] the protein stability index was 1.4. In the case of FLGHHSFSVRPGTEAGISIREDEV [T16G], the protein stability index is reported as 2.1. FLGHHSFSVRPGTEANISIREDEV [T16N] showed a protein stability index of 2.05. Work on FLGHHSFSVRPGTEARISIREDEV [T16R] yielded a protein stability index of 2.46. Work on FLGHHSFSVRPGTEADISIREDEV [T16D] yielded a protein stability index of 3.29. In the case of FLGHHSFSVRPGTEAKISIREDEV [T16K], the protein stability index is reported as 1.75. Work on FLGHHSFSVRPGTSATISIREDEV [E14S] yielded a protein stability index of 1.77. FLGHHSFSVRPGTCATISIREDEV [E14C] showed a protein stability index of 1.65. FLGHHSFSVRPGTIATISIREDEV [E14I] showed a protein stability index of 1.77. Work on FLGHHSFSVRPGTDATISIREDEV [E14D] yielded a protein stability index of 1.13. In the case of FLGHHSFSVRPGTAATISIREDEV [E14A], the protein stability index is reported as 1.92. Variant FLGHHSFSVRPGTTATISIREDEV [E14T] has a protein stability index of 2.24. Variant FLGHHSFSVRPGTGATISIREDEV [E14G] has a protein stability index of 2.31. For FLGHISFSVRPGTEATISIREDEV [H5I], the protein stability index was 1.64. FLGHMSFSVRPGTEATISIREDEV [H5M] gave a protein stability index of 2.33. For FLGHVSFSVRPGTEATISIREDEV [H5V], the protein stability index was 1.33. In the case of FLGHGSFSVRPGTEATISIREDEV [H5G], the protein stability index is reported as 2.3. Work on FLGHQSFSVRPGTEATISIREDEV [H5Q] yielded a protein stability index of 1.25. Work on FLGHLSFSVRPGTEATISIREDEV [H5L] yielded a protein stability index of 2.28. For FLGHCSFSVRPGTEATISIREDEV [H5C], the protein stability index was 1.53. For FLGHHSFSVRPGTEATCSIREDEV [I17C], the protein stability index was 1.96. Work on FLGHHSFSVRPGTEATWSIREDEV [I17W] yielded a protein stability index of 1.58. Variant FLGHHSFSVRPGTEATVSIREDEV [I17V] has a protein stability index of 1.68. FLGHHSFSVRPGTEATASIREDEV [I17A] gave a protein stability index of 2.44. Variant FLGHHSFSVRPGTEATQSIREDEV [I17Q] has a protein stability index of 2.54. Work on FLGHHSFRVRPGTEATISIREDEV [S8R] yielded a protein stability index of 1.96. FLGHHSFEVRPGTEATISIREDEV [S8E] gave a protein stability index of 2.48. Work on FLGHHSFQVRPGTEATISIREDEV [S8Q] yielded a protein stability index of 1.78. Work on FLGHHSFNVRPGTEATISIREDEV [S8N] yielded a protein stability index of 2.4. FLGHHSFYVRPGTEATISIREDEV [S8Y] showed a protein stability index of 1.86. In the case of FLGHHSFGVRPGTEATISIREDEV [S8G], the protein stability index is reported as 2.43. With FLGHHSFWVRPGTEATISIREDEV [S8W] the protein stability index was 2.68. FLGHHSFSKRPGTEATISIREDEV [V9K] showed a protein stability index of 2.83. Work on FLGHHSFSTRPGTEATISIREDEV [V9T] yielded a protein stability index of 2.29. Work on FLGHHSFSQRPGTEATISIREDEV [V9Q] yielded a protein stability index of 2.86. Variant FLGHHSFSRRPGTEATISIREDEV [V9R] has a protein stability index of 3.8. Work on FLGHHSFSLRPGTEATISIREDEV [V9L] yielded a protein stability index of 2.15. Variant FLGHHSFSYRPGTEATISIREDEV [V9Y] has a protein stability index of 2.84. Work on FLGHHSFSMRPGTEATISIREDEV [V9M] yielded a protein stability index of 2.42. In the case of FLGHHSFSFRPGTEATISIREDEV [V9F], the protein stability index is reported as 2.33. For FLGHHSFSWRPGTEATISIREDEV [V9W], the protein stability index was 1.64. Work on FLGHHSFSHRPGTEATISIREDEV [V9H] yielded a protein stability index of 3.09. FLGHHSFSERPGTEATISIREDEV [V9E] gave a protein stability index of 2.83. In the case of FLGHHSFSCRPGTEATISIREDEV [V9C], the protein stability index is reported as 2.08. FLGHHSFSDRPGTEATISIREDEV [V9D] gave a protein stability index of 3.54.

Variants of: B2
Test: as above
Settings: c terminus: a fixed tail appended
Work on DEGLLDRCVSFQARFAEKEELMLV [Q1D] yielded a protein stability index of 1.85. Variant HEGLLDRCVSFQARFAEKEELMLV [Q1H] has a protein stability index of 1.54. For AEGLLDRCVSFQARFAEKEELMLV [Q1A], the protein stability index was 1.94. In the case of FEGLLDRCVSFQARFAEKEELMLV [Q1F], the protein stability index is reported as 1.18. CEGLLDRCVSFQARFAEKEELMLV [Q1C] gave a protein stability index of 1.39. GEGLLDRCVSFQARFAEKEELMLV [Q1G] gave a protein stability index of 1.51. In the case of EEGLLDRCVSFQARFAEKEELMLV [Q1E], the protein stability index is reported as 2.51.
